This passage reports Kd, koff and kon results from publication PMC9433327.

Read-outs that look alike come from different tables or passages of the source.

The target in experiment [1] is LRPL-1 (cDNA lacking the signal peptide) (C. elegans). As to the kind of experiment: SPR; LRPL-1 biotinylated and captured on a Streptavidin chip, Biacore X100; DMA-1 ectodomain as analyte at 78 nM to 10 µM; HBS (10 mM HEPES pH 7.2, 150 mM NaCl) with 0.05% Tween-20 and 0.1% BSA; kinetic fit and steady-state fit (Langmuir 1:1).
For experiment [2] the target is unchanged. Described as above. The source holds these as a separate data set.

What is called Kd is a measure of binding affinity in units of concentration. Higher therefore signals lower affinity. Usually koff stands for a measure of how fast the partners let go of each other. A low value points to slow dissociation. By kon is commonly meant the second-order rate constant of association. Higher therefore signals fast association. In the case of “DMA-1 ectodomain (amino acids Leu20 to Leu507) (domain or fragment)”, in experiment [1], the Kd was found to be 3.9 µM, the koff is 0.018 s⁻¹ and the kon is 4600 M⁻¹ s⁻¹. Moreover, the Kd in experiment [2] is 6.9 µM.
